Results taken from PMC5805371.

Biological target: MYC-tagged TNPO1 (UniProt Q92973)
Experiment: co-immunoprecipitation with luciferase readout (anti-MYC IP)
Conditions: HEK293 cells expressing MYC-TNPO1 and PER1PY/Cys_mut-LUCIFERASE; control IgG IP (filled bar) est. 0.75 ± 0.19; n.s.; means ± SD of five; read off a plot

Sequence of UniProt Q92973 (Q92973 whole entry): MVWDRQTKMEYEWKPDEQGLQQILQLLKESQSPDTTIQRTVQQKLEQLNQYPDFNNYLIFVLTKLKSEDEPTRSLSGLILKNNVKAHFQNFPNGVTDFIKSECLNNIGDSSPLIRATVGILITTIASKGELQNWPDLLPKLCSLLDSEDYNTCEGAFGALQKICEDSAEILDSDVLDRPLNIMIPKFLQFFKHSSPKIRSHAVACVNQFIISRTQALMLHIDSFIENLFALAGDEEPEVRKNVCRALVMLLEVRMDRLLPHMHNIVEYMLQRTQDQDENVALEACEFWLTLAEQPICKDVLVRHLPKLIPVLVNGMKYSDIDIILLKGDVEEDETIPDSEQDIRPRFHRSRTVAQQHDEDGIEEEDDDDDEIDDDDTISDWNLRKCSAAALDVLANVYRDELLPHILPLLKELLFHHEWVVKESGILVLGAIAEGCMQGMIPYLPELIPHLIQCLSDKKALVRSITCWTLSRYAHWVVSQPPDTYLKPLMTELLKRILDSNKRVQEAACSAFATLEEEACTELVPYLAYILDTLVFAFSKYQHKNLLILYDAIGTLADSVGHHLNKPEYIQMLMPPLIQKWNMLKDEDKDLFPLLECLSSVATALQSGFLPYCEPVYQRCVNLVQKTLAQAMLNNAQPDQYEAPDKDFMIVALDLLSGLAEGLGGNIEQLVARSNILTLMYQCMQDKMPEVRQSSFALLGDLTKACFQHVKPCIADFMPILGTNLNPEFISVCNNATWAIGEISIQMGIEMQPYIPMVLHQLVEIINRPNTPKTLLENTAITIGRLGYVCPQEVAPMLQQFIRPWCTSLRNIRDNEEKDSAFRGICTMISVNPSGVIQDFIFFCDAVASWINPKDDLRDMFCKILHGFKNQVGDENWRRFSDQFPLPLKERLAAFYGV

response: 0.75
Substance: PER1 fused to full-length firefly luciferase (HEK293) (from UniProt O15534) P883A; Y884A; P935A; Y936A; seven C-terminal Cys to Ala (positions not printed)
